± gives the standard deviation of the averaged measurements.
B1: library; a variant is named by its letters at N, in order (parent)
chain: GCUGUCACCGAGAAACUGUGAAGUAUAUCUUAAACCUGGGCACUUAAAAGAUAUAUGGAGUUAGUAGUGCAACCUGCUCGGUCUGAUGAGUCCNNNNNNGGACGAAACAGC

Tests used:
cyclic di-GMP [1] = variants of: B1; experiment: normalized RNA/DNA level without ligand (relative to sTRSVctl = 100) (log10 (% of sTRSVctl)); HEK293T; ligand: cyclic di-GMP (c-di-GMP-II aptamer); higher = less ribozyme self-cleavage, higher mRNA level; settings: reporter: mCherry (pCS4076), ligand present: no
In short: (§1)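 Ribozyme switch library plasmids linked to reporters were introduced into HEK293T cells at 4 µg per 6-well well, with ligand, if any, added 1 h before. Total RNA was extracted with EDTA 72 h later, reverse-transcribed, amplified, barcoded and sequenced. RNA level was computed from RNA over DNA reads relative to a spiked-in non-cleaving sequence or the top sequences, then scaled and log-transformed. The top set was 25 sequences, values were ×100 and log10, and the cutoff was ≥100 DNA reads.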

cyclic di-GMP [2] = variants of: B1; experiment: normalized RNA/DNA level with ligand (relative to sTRSVctl = 100) (log10 (% of sTRSVctl)); HEK293T; ligand: cyclic di-GMP (c-di-GMP-II aptamer); ligand concentration (+) RNA-Seq: 1 mM; higher = less ribozyme self-cleavage, higher mRNA level; settings: reporter: mCherry (pCS4076), ligand present: yes
In short: as §1

Variant | normalized RNA/DNA level without ligand (log10) (cyclic di-GMP [1]) | normalized RNA/DNA level with ligand (log10) (cyclic di-GMP [2])
GCGGGC | 1.53 ± 0.028 | 1.69 ± 0.064
GCGGGG | 1.74 ± 0.035 | 1.83 ± 0.12
CCGCUG | 1.28 ± 0.15 | 1.56 ± 0.12
CCGCUC | 1.66 ± 0.029 | 1.85 ± 0.094
CCUAGU | 1.72 ± 0.02 | 1.85 ± 0.11
CCUAGC | 1.6495 ± 0.00083 | 1.82 ± 0.056
CCUAGA | 1.585 ± 0.0086 | 1.79 ± 0.074
CCUAGG | 1.79 ± 0.045 | 1.84 ± 0.13
UCUGAC | 1.677 ± 0.011 | 1.84 ± 0.12
UCUGAG | 1.66 ± 0.056 | 1.78 ± 0.098
GCUGUC | 1.43 ± 0.14 | 1.72 ± 0.024
GCUCCC | 1.71 ± 0.052 | 1.83 ± 0.17
GCUCCG | 1.79 ± 0.028 | 1.92 ± 0.13
GCUCCA | 1.7142 ± 0.0002 | 1.83 ± 0.1
GCUCCU | 1.71 ± 0.0058 | 1.85 ± 0.081
GCUAUC | 1.53 ± 0.045 | 1.66 ± 0.13
GCUAUU | 1.568 ± 0.0067 | 1.74 ± 0.12
ACGGGU | 1.42 ± 0.083 | 1.58 ± 0.092
ACGGGC | 1.7 ± 0.073 | 1.88 ± 0.1
ACGGGG | 1.693 ± 0.015 | 1.82 ± 0.1
ACUCGU | 1.76 ± 0.043 | 1.85 ± 0.021
ACUCGA | 1.52 ± 0.065 | 1.73 ± 0.11
ACUCGC | 1.73 ± 0.027 | 1.88 ± 0.15
ACUCGG | 1.72 ± 0.074 | 1.76 ± 0.2

Variant | normalized RNA/DNA level without ligand (log10) (cyclic di-GMP [1]) | normalized RNA/DNA level with ligand (log10) (cyclic di-GMP [2])
GCGCUU | 1.61 ± 0.043 | 1.78 ± 0.13
GCGCUG | 1.77 ± 0.049 | 1.84 ± 0.14
UCUAUG | 1.7 ± 0.034 | 1.85 ± 0.09
UCUAUA | 1.56 ± 0.067 | 1.74 ± 0.12
UCUAUU | 1.63 ± 0.034 | 1.78 ± 0.094
UCUAUC | 1.698 ± 0.013 | 1.84 ± 0.086
UCUCUG | 1.718 ± 0.015 | 1.87 ± 0.14
UCUCUA | 1.666 ± 0.0017 | 1.82 ± 0.12
UCUCUU | 1.74 ± 0.039 | 1.86 ± 0.089
UCUCUC | 1.81 ± 0.069 | 1.9 ± 0.12
CCGGGA | 1.51 ± 0.068 | 1.69 ± 0.089
CCGGGU | 1.69 ± 0.066 | 1.81 ± 0.15
CCGGGC | 1.821 ± 0.013 | 1.93 ± 0.12
ACGUUA | 1.49 ± 0.045 | 1.65 ± 0.13
ACGUUG | 1.52 ± 0.083 | 1.74 ± 0.035
ACGUUC | 1.61 ± 0.045 | 1.8 ± 0.1
UCGUGU | 1.617 ± 0.0058 | 1.81 ± 0.1
UCGUGA | 1.47 ± 0.082 | 1.73 ± 0.09
UCGUGC | 1.67 ± 0.017 | 1.86 ± 0.12
UCGUGG | 1.738 ± 0.004 | 1.89 ± 0.11
GCGUUA | 1.54 ± 0.054 | 1.75 ± 0.11
GCGUUC | 1.34 ± 0.19 | 1.55 ± 0.13
GCGUUG | 1.56 ± 0.042 | 1.75 ± 0.11
ACGGCA | 1.648 ± 0.011 | 1.77 ± 0.1

Variant | normalized RNA/DNA level without ligand (log10) (cyclic di-GMP [1]) | normalized RNA/DNA level with ligand (log10) (cyclic di-GMP [2])
ACGGCU | 1.56 ± 0.018 | 1.75 ± 0.12
ACGGCC | 1.78 ± 0.063 | 1.87 ± 0.13
ACGGCG | 1.75 ± 0.067 | 1.86 ± 0.1
CCUCCA | 1.68 ± 0.031 | 1.83 ± 0.088
UCUGCC | 1.8 ± 0.045 | 1.91 ± 0.064
UCUGCG | 1.78 ± 0.035 | 1.85 ± 0.12
UCUGCA | 1.748 ± 0.0085 | 1.85 ± 0.13
UCUCAU | 1.638 ± 0.0046 | 1.78 ± 0.061
UCUCAA | 1.659 ± 0.013 | 1.83 ± 0.12
UCUCAG | 1.75 ± 0.073 | 1.89 ± 0.098
UCUCAC | 1.78 ± 0.018 | 1.87 ± 0.066
GCGUAC | 1.34 ± 0.086 | 1.52 ± 0.12
GCGUAA | 1.44 ± 0.091 | 1.61 ± 0.096
ACUGGC | 1.61 ± 0.084 | 1.79 ± 0.12
CCUACG | 1.7 ± 0.021 | 1.82 ± 0.13
CCUACU | 1.581 ± 0.011 | 1.76 ± 0.12
CCUACA | 1.53 ± 0.07 | 1.77 ± 0.044
ACGUAC | 1.58 ± 0.053 | 1.78 ± 0.077
ACGUAG | 1.55 ± 0.021 | 1.72 ± 0.14
GCUCGG | 1.78 ± 0.018 | 1.88 ± 0.052
GCUCGA | 1.57 ± 0.04 | 1.73 ± 0.099
GCUCGC | 1.82 ± 0.042 | 1.87 ± 0.097
UCGCUC | 1.742 ± 0.011 | 1.87 ± 0.14
UCGCUG | 1.69 ± 0.0043 | 1.84 ± 0.082

Variant | normalized RNA/DNA level without ligand (log10) (cyclic di-GMP [1]) | normalized RNA/DNA level with ligand (log10) (cyclic di-GMP [2])
UCGCUU | 1.66 ± 0.018 | 1.84 ± 0.11
ACUAGA | 1.41 ± 0.066 | 1.64 ± 0.12
ACUAGG | 1.52 ± 0.071 | 1.7 ± 0.066
ACUAGC | 1.6 ± 0.048 | 1.77 ± 0.12
ACUAGU | 1.674 ± 0.011 | 1.8 ± 0.065
UCGUUU | 1.68 ± 0.042 | 1.85 ± 0.11
UCGUUA | 1.44 ± 0.076 | 1.63 ± 0.051
UCGUUC | 1.739 ± 0.0071 | 1.88 ± 0.11
UCGUUG | 1.61 ± 0.14 | 1.83 ± 0.096
ACUACC | 1.69 ± 0.04 | 1.86 ± 0.097
ACUACU | 1.68 ± 0.041 | 1.82 ± 0.14
ACUACG | 1.61 ± 0.022 | 1.81 ± 0.1
UCGUAG | 1.63 ± 0.059 | 1.82 ± 0.11
UCGUAA | 1.44 ± 0.1 | 1.64 ± 0.15
UCGUAU | 1.53 ± 0.068 | 1.76 ± 0.12
UCGUCG | 1.74 ± 0.03 | 1.88 ± 0.085
UCGUCA | 1.644 ± 0.00093 | 1.82 ± 0.11
UCGUCU | 1.72 ± 0.043 | 1.89 ± 0.094
UCGUCC | 1.794 ± 0.01 | 1.9 ± 0.081
ACGGUG | 1.6002 ± 0.00028 | 1.74 ± 0.1
ACGGUC | 1.637 ± 0.014 | 1.77 ± 0.17
CCGUCU | 1.6 ± 0.061 | 1.78 ± 0.12
CCGUCG | 1.68 ± 0.0046 | 1.82 ± 0.13
CCGUCA | 1.592 ± 0.009 | 1.79 ± 0.047

Variant | normalized RNA/DNA level without ligand (log10) (cyclic di-GMP [1]) | normalized RNA/DNA level with ligand (log10) (cyclic di-GMP [2])
UCUGUC | 1.75 ± 0.035 | 1.87 ± 0.1
GCUGCU | 1.682 ± 0.0098 | 1.8 ± 0.11
GCUGCC | 1.67 ± 0.067 | 1.83 ± 0.16
UCUAAC | 1.6887 ± 0.0016 | 1.83 ± 0.13
UCUAAG | 1.64 ± 0.079 | 1.82 ± 0.072
CCUGAC | 1.649 ± 0.011 | 1.78 ± 0.11
CCUGAU | 1.6 ± 0.021 | 1.78 ± 0.14
CCUGAA | 1.32 ± 0.099 | 1.61 ± 0.077
CCUGAG | 1.55 ± 0.077 | 1.76 ± 0.15
ACGCUG | 1.62 ± 0.039 | 1.79 ± 0.089
ACGCUU | 1.37 ± 0.076 | 1.6 ± 0.17
ACGGAC | 1.52 ± 0.075 | 1.73 ± 0.09
UCGGUG | 1.68 ± 0.049 | 1.78 ± 0.13
UCGGUU | 1.61 ± 0.093 | 1.79 ± 0.082
CCUGCU | 1.698 ± 0.0032 | 1.84 ± 0.1
CCUGCG | 1.8 ± 0.026 | 1.88 ± 0.13
CCUGCA | 1.67 ± 0.056 | 1.84 ± 0.058
CCGGCC | 1.77 ± 0.04 | 1.86 ± 0.15
CCGGCG | 1.69 ± 0.023 | 1.77 ± 0.05
CCGGCA | 1.7 ± 0.026 | 1.79 ± 0.12

— the supplement of paper PMC6757056
